According to US20200407723, “APTAMER BASED AFFINITY CAPTURE METHODS FOR THE SELECTIVE ENRICHMENT OF HUMAN IMMUNOGLOBULIN FC DOMAINS” (Waters Technologies Corporation, published 2020):

Columns and labels:
[1] = target: NISTmAb humanized IgG1 (Fc domain) (UniProt P01857-1 P01857-1:99-330); assay: pulldown; from rat plasma, 12.5 ug aptamer, about 85% of 100 ug recovered, purity 10.6% to 72.4%; bound mAb to plasma protein ratio near 7:3; retained in 5 mM CaCl2 Tris; conditions: chain copies: 2; label: 5'-biotin
Description: 280 nm, Em. 370 nm) and re-calculated according to the chromatographic purity assessment. […] After purification, about 85% of the spiked NIST mAb was recovered with purity increasing from 10.6% to 72.4%.
The small portion of impurity in the purified NIST mAb eluate was determined to be the non-specific binding of rat plasma endogenous proteins to the aptamer. The competition in binding between NIST mAb and plasma protein was investigated by loading 20 μL of rat plasma containing 50 μg of NIST mAb onto an increasing amount of immobilized aptamer (5 μg, 12.5 μg, 25 μg). The result of this experiment is summarized in FIG. 8D-E. From which, it is possible to observe that the binding ratio of NIST mAb to plasma protein is close to 7:3 (from UV measurement) for the current experimental approach.
To test out this optional protocol step, 20 μL of plasma and 25 μg of NIST mAb were diluted with binding buffer to 200 μL then loaded onto 40 μL of streptavidin resin wherein 5 μg of aptamer was non-covalently immobilized. […] Herein, the second washing and elution fractions were collected and analyzed by LC-UV analysis. […]

[2] = target: bovine serum albumin (Bos taurus, UniProt P02769 P02769:25-607); assay: pulldown; negative control; negligible non-specific binding in Tris with Mg2+; high non-specific binding with Zn2+, especially without NaCl; conditions: tags: Sigma-Aldrich; label: 5'-biotin
bovine serum albumin, sequence (P02769 25-607, one chain of several): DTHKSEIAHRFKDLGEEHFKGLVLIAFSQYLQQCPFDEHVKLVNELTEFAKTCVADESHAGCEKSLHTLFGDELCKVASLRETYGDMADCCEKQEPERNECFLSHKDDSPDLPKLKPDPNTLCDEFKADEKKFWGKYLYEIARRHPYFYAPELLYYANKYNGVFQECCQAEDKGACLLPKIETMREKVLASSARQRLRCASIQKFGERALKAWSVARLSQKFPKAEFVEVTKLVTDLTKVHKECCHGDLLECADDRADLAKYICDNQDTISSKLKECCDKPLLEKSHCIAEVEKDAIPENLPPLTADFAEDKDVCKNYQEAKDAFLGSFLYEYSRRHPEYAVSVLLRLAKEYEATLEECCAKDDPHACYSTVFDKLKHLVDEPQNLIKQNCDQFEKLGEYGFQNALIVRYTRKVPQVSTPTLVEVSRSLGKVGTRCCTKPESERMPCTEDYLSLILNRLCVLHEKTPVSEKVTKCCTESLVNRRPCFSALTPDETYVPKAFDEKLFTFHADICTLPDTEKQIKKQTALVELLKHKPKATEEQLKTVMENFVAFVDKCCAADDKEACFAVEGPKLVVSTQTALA
Description: A positive pressure manifold (commercially available from Waters Technologies Corporation, Milford, Mass.) was utilized to drive flow through the filter plate. The amount of aptamer immobilized was determined by abosorbance at 260 nm using a DS-11 spectrophotometer (commercially available from DeNovix Inc., Wilmington, Del.). This non-covalently immobilized aptamer affinity resin was used to perform the affinity capture of 100 μg human IgG (IgG from human serum, commercially available from Sigma-Aldrich (now MilliporeSigma), St. Louis, Mo.) contained within 200 μL of several different binding buffers (specified below). After 1 hour of mixing, the resin was washed with two repeated 200 μL volumes to remove any unbound protein. Combined hIgG flow-through and washing fractions were saved to determine the amount of hIgG breakthrough. […] The eluate was saved for hIgG recovery measurements using a fluorescence plate reader (Ex. 280 nm, Em. 370 nm; Gemini™ XPS plate reader, commercially available from Molecular Devices, San Jose, Calif.).
The presence of divalent cations in the binding buffer has the potential to facilitate the activation of the aptamer affinity motif, yet it could also instigate non-specific binding. […] After binding and washing steps, captured proteins were eluted with elution buffer and protein recovery in each eluate was measured using a fluorescence plate reader.

B1: anti-human Fc 23-nt aptamer SEQ ID NO 1 (mixed)
RNA: GGAGGUGCUCCGAAAGGAACUCC
modifications: 2'-F U at 6, 9, 21; 2'-F C at 20; ribonucleotides at A3, G4, G5, G7, G16, G17; all other positions deoxyribonucleotides
B1: binds [1]; no binding [2].
